This is an account of results in patent US20180155450A1 (Sanofi, published 2018).

For test [1], the target named is recombinant human IL13 (human, UniProt P35225 35-146, limits assumed). Description: cell-based or functional assay.
Target sequence in this assay (P35225 35-146 limits assumed): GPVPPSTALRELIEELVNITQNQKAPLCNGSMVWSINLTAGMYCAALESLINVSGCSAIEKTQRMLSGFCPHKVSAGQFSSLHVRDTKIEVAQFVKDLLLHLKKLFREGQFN
Test [2] deals with T1, recombinant human IL4 (human, UniProt P05112 25-153).
T1 sequence (looked up): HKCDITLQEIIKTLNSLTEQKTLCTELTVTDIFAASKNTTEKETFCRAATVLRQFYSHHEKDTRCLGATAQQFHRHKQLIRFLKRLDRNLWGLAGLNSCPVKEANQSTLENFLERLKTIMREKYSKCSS
The test is described as follows: cell-based or functional assay.

Test [3] addresses T1, recombinant human IL4. Description: SPR (Biacore 3000), antibody captured, antigen as analyte. A general note: In SPR one partner is held on a chip, and binding of the other changes the refractive index at the surface.
Description: (§1) Kinetic binding analysis by Biacore was performed as follows. Surface plasmon resonance technology on a Biacore 3000 (GE Healthcare) was used for detailed kinetic characterization of purified antibodies. […] Chip surfaces were regenerated with 10 mM glycine pH 2.5. Kinetic parameters were analyzed and calculated in the BIAevaluation program package v4.1 using a flow cell without captured antibody as a reference.
In test [4] the target is T1, recombinant human IL4. The description is as above. This is another data set of the same source.
Description: as §1
Test [5] concerns the target T1, recombinant human IL4. The test is described as follows: cell-based or functional assay. The source holds these as a separate data set.
The target of test [6] is T1, recombinant human IL4. The test is described as follows: SPR (Biacore 3000), CODV-Fab captured with anti-human Fab capture kit, antigen as analyte.
Description: as §1
In test [7] the target is T2, recombinant human IL13 (human, UniProt P35225 35-146, limits assumed).
T2 construct: also called Antigen2
Description: SPR, BIACORE 3000; antibody captured by anti-human Fc, antigen 0-25 nM as analyte.
T2 sequence (P35225 35-146 limits assumed): as the sequence (P35225 35-146 limits assumed) above
Description: Kinetic characterization of purified antibodies was performed using surface plasmon resonance technology on a BIACORE 3000 (GE Healthcare). […] Chip surfaces were regenerated with 10 mM glycine, pH 2.5. Kinetic parameters were analyzed and calculated in the BIAevaluation program package v4.1 using a flow cell without captured antibody as reference.

Test [8] addresses T3, recombinant human IL4 (human, UniProt P05112 25-153).
T3 construct: also called Antigen1
T3 sequence (looked up): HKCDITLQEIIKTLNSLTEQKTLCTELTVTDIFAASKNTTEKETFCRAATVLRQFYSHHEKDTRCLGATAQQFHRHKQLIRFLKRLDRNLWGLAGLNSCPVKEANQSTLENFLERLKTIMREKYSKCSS
Description: SPR, Biacore 3000; CODV-Ig captured by anti-human Fc, antigen as analyte.
Description: as §1

In test [9] the target is T2, recombinant human IL13. The description is as above.
Description: as §1

Where two headings read alike, the source gives them in different places.

B1: CODV-Ig Batch ID 601 (Batch ID 204 with P344C & A432C in IGHG1) (bispecific antibody, human IgG1, kappa)
heavy: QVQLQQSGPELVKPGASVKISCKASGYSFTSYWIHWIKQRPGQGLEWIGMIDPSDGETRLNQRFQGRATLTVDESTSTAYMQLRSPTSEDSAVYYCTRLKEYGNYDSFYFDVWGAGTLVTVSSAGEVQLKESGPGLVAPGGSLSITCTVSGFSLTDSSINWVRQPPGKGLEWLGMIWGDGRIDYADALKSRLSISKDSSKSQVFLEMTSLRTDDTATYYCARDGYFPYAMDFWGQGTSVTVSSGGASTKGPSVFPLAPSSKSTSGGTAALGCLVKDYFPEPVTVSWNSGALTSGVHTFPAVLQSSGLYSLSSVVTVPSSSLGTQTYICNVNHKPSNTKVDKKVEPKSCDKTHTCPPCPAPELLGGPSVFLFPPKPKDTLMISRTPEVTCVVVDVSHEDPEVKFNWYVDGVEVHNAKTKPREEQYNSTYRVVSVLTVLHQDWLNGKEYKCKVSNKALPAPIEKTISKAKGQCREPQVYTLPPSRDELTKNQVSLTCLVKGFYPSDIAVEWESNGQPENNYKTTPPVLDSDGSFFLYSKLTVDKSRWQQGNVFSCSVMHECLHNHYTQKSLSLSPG
light: DIVLTQSPASLAVSLGQRATISCRASESVDSYGQSYMHWYQQKAGQPPKLLIYLASNLESGVPARFSGSGSRTDFTLTIDPVQAEDAATYYCQQNAEDSRTFGGGTKLEIKGGGGGGGDIQMTQSPASLSVSVGDTITLTCHASQNIDVWLSWFQQKPGNIPKLLIYKASNLHTGVPSRFSGSGSGTGFTLTISSLQPEDIATYYCQQAHSYPFTFGGGTKLEIKRGGGGGRTVAAPSVFIFPPSDEQLKSGTASVVCLLNNFYPREAKVQWKVDNALQSGNSQESVTEQDSKDSTYSLSSTLTLSKADYEKHKVYACEVTHQGLSSPVTKSFNRGEC
Regarding B1, the “IC50 Cellular Assay IL13 [nM] (HEK-Blue IL-4/IL-13 reporter cells, SEAP)” value with recombinant human IL13 [1] is 1.7 nM. Moreover, in the test with recombinant human IL4 [2], the “IC50 Cellular Assay IL4 [nM] (HEK-Blue IL-4/IL-13 reporter cells, SEAP)” value turned out to be 0.032 nM.

B2: CODV-Ig Batch ID 204 (IL4 × IL13 on HC; L1=7, L2=5, L3=1, L4=2) (bispecific antibody)
heavy: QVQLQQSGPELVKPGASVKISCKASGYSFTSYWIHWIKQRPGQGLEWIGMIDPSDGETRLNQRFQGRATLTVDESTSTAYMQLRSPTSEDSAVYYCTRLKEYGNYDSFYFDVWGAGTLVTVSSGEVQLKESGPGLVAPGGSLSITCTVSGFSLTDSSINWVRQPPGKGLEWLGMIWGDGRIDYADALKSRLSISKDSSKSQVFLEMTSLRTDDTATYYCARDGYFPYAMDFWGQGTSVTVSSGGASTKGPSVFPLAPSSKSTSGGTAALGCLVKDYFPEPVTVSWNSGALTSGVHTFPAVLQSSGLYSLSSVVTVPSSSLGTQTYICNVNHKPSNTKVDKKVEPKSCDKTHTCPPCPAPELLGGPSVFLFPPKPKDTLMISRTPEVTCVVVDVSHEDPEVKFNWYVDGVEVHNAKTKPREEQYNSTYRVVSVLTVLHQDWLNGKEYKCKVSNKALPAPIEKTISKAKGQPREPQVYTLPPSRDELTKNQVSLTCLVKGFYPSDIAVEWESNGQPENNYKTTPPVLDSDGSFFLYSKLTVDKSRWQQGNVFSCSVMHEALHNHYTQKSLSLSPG
light: DIVLTQSPASLAVSLGQRATISCRASESVDSYGQSYMHWYQQKAGQPPKLLIYLASNLESGVPARFSGSGSRTDFTLTIDPVQAEDAATYYCQQNAEDSRTFGGGTKLEIKGGGGGGGDIQMTQSPASLSVSVGDTITLTCHASQNIDVWLSWFQQKPGNIPKLLIYKASNLHTGVPSRFSGSGSGTGFTLTISSLQPEDIATYYCQQAHSYPFTFGGGTKLEIKGGGGGRTVAAPSVFIFPPSDEQLKSGTASVVCLLNNFYPREAKVQWKVDNALQSGNSQESVTEQDSKDSTYSLSSTLTLSKADYEKHKVYACEVTHQGLSSPVTKSFNRGEC
notes: 704 prints 'IL13 × IL4' and format 'CODV'; also called 801; 704
By Kd is commonly meant the equilibrium constant for the complex coming apart. With B2, the Kd in the test with recombinant human IL4 [3] and with recombinant human IL4 [4] was 0.003 nM in each case. Also, in the test with recombinant human IL4 [5], the “IC50 Cellular Assay IL4 [nM] (HEK-Blue IL-4/IL-13 reporter cells, SEAP)” value was 0.045 nM.

B3: CODV-Fab Batch ID 421 (IL4 × IL13; L1=7, L2=5, L3=1, L4=2) (bispecific antibody)
heavy: QVQLQQSGPELVKPGASVKISCKASGYSFTSYWIHWIKQRPGQGLEWIGMIDPSDGETRLNQRFQGRATLTVDESTSTAYMQLRSPTSEDSAVYYCTRLKEYGNYDSFYFDVWGAGTLVTVSSGEVQLKESGPGLVAPGGSLSITCTVSGFSLTDSSINWVRQPPGKGLEWLGMIWGDGRIDYADALKSRLSISKDSSKSQVFLEMTSLRTDDTATYYCARDGYFPYAMDFWGQGTSVTVSSGGASTKGPSVFPLAPSSKSTSGGTAALGCLVKDYFPEPVTVSWNSGALTSGVHTFPAVLQSSGLYSLSSVVTVPSSSLGTQTYICNVNHKPSNTKVDKKVEPKSCDKTHTHHHHHH
light: DIVLTQSPASLAVSLGQRATISCRASESVDSYGQSYMHWYQQKAGQPPKLLIYLASNLESGVPARFSGSGSRTDFTLTIDPVQAEDAATYYCQQNAEDSRTFGGGTKLEIKGGGGGGGDIQMTQSPASLSVSVGDTITLTCHASQNIDVWLSWFQQKPGNIPKLLIYKASNLHTGVPSRFSGSGSGTGFTLTISSLQPEDIATYYCQQAHSYPFTFGGGTKLEIKGGGGGRTVAAPSVFIFPPSDEQLKSGTASVVCLLNNFYPREAKVQWKVDNALQSGNSQESVTEQDSKDSTYSLSSTLTLSKADYEKHKVYACEVTHQGLSSPVTKSFNRGEC
As to B3, the Kd with recombinant human IL4 [6] was 0.012 nM.

B4: parental anti-IL13 mAb (antibody, V domains shown)
VH: EVQLKESGPGLVAPGGSLSITCTVSGFSLTDSSINWVRQPPGKGLEWLGMIWGDGRIDYADALKSRLSISKDSSKSQVFLEMTSLRTDDTATYYCARDGYFPYAMDFWGQGTSVTVSS
VL: DIVLTQSPASLAVSLGQRATISCRASESVDSYGQSYMHWYQQKAGQPPKLLIYLASNLESGVPARFSGSGSRTDFTLTIDPVQAEDAATYYCQQNAEDSRTFGGGTKLEIK
notes: also called parental humanized anti-IL13; BB13
Turning to B4, the dissociation constant (Kd) with recombinant human IL13 [7] came to 0.0818 nM.

B5: CODV-Ig Batch ID 130 (IL4 × IL13 on LC; L1=1, L2=4, L3=2, L4=4) (bispecific antibody)
chain 1: not shown
chain 2: DIQMTQSPASLSVSVGDTITLTCHASQNIDVWLSWFQQKPGNIPKLLIYKASNLHTGVPSRFSGSGSGTGFTLTISSLQPEDIATYYCQQAHSYPFTFGGGTKLEIKGDIVLTQSPASLAVSLGQRATISCRASESVDSYGQSYMHWYQQKAGQPPKLLIYLASNLESGVPARFSGSGSRTDFTLTIDPVQAEDAATYYCQQNAEDSRTFGGGTKLEIKGGGGRTVAAPSVFIFPPSDEQLKSGTASVVCLLNNFYPREAKVQWKVDNALQSGNSQESVTEQDSKDSTYSLSSTLTLSKADYEKHKVYACEVTHQGLSSPVTKSFNRGEC
In the case of B5, the Kd with recombinant human IL4 [8] is 0.004 nM; in the test with recombinant human IL13 [9], 0.057 nM.
